Assay results as given in patent US20050265970A1.

Target: GST-MKK7 (GST-JNKK2; human JNKK2 in pGEX-2T) (human) (UniProt O14733)
Assay: in vitro pull-down with purified GST-MKK7 and increasing His6/T7-tagged protein, anti-T7 Western blot; JIP1 under non-saturating conditions

Sequence of GST-MKK7 (GST-JNKK2; human JNKK2 in pGEX-2T) (human) (O14733 1-401 Q94H/Q133P): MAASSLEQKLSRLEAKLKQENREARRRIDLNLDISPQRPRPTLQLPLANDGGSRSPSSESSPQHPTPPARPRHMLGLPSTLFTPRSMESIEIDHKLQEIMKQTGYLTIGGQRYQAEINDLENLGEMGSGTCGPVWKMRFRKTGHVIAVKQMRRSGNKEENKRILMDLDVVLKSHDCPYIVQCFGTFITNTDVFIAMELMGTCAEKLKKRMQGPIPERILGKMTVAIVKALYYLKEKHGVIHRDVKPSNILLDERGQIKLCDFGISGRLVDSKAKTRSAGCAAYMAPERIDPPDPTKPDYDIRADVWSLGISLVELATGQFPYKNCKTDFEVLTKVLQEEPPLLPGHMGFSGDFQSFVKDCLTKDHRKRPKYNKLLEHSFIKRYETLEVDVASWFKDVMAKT

Q: “His6/T7-JIP1 (MKK7-binding domain of JIP1b, pET28)” was tested. Which half maximum binding (HMB) did it give?
A: > 650 nM
